Results on one molecule are retold here after publication PMC10797690, “The SIRT3-ATAD3A axis regulates MAM dynamics and mitochondrial calcium homeostasis in cardiac hypertrophy” (International Journal of Biological Sciences, 2024).

For the assay, the target named is T1, NAD+-dependent deacetylase Sirtuin 3 (SIRT3), protein used for SPR.
T1 chain: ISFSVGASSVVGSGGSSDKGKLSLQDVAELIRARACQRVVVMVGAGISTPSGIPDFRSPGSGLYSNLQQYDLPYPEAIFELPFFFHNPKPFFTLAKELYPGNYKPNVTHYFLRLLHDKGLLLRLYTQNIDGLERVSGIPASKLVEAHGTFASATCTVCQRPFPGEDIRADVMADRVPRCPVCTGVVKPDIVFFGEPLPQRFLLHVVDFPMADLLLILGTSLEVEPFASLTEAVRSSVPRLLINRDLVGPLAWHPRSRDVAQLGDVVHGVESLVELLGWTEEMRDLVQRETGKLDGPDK
The assay is described as follows: SPR; multicycle kinetics; which protein was immobilised is not told. The settings on record: both partners purified. In general terms: Surface plasmon resonance follows binding to a sensor surface in real time, without labels.

B1: ATPase family AAA-domain containing protein 3A (ATAD3A), protein used for SPR (natural protein)
chain: SWLFGINKGPKGEGAGPPPPLPPAQPGAEGGGDRGLGDRPAPKDKWSNFDPTGLERAAKAARELEHSRYAKDALNLAQMQEQTLQLEQQSKLKEYEAAVEQLKSEQIRAQAEERRKTLSEETRQHQARAQYQDKLARQRYEDQLKQQQLLNEENLRKQEESVQKQEAMRRATVEREMELRHKNEMLRVEAEARARAKAERENADIIREQIRLKAAEHRQTVLESIRTAGTLFGEGFRAFVTDWDKVTATVAGLTLLAVGVYSAKNATLVAGRFIEARLGKPSLVRETSRITVLEALRHPIQVSRRLLSRPQDALEGVVLSPSLEARVRDIAIATRNTKKNRSLYRNILMYGPPGTGKTLFAKKLALHSGMDYAIMTGGDVAPMGREGVTAMHKLFDWANTSRRGLLLFVDEADAFLRKRATEKISEDLRATLNAFLYRTGQHSNKFMLVLASNQPEQFDWAINDRINEMVHFDLPGQEERERLVRMYFDKYVLKPATEGKQRLKLAQFDYGRKCSEVARLTEGMSGREIAQLAVSWQATAYASEDGVLTEAMMDTRVQDAVQQHQQKMCWLKAEGPGRGDEPSPS
As a reminder, the Kd is the free concentration of one partner at which half of the binding sites on the other are occupied at equilibrium, for simple one-to-one binding. A low value points to higher affinity. With B1, binding was put at a Kd of 50.9 nM.
